This note sets out measurements from PMC10371251.

For this data set, the system named is FLAG-cGAS (Homo sapiens). In words: pull-down (streptavidin, Western blot; ligand transfected into HEK293T 2 h). The conditions noted are these: 5' or 3' position of biotin not stated, forward strand biotinylated, reverse unmodified, HEK293T transfected with 4 ug/mL biotin-ISD45 for 2 h, then streptavidin IP, IP buffer, pH and temperature not in the material (oligo annealing: 5 mM Tris pH 7.). (In western blotting, separated proteins are transferred to a membrane and probed.)

biotinylated ISD45: the binding signal (fold of empty vector) (WT SRC-HA coexpressed) worked out at 0.466 and the binding signal (fold of empty vector) (empty vector, no SRC-HA, non-biotinylated ISD45 background 0.1436) is 1.
